Laboratory results taken from IntAct's records for PubMed 32296183.

B1: Dolichol kinase (Homo sapiens), Q9UPQ8 (parent)
chain: MTRECPSPAPGPGAPLSGSVLAEAAVVFAVVLSIHATVWDRYSWCAVALAVQAFYVQYKWDRLLQQGSAVFQFRMSANSGLLPASMVMPLLGLVMKERCQTAGNPFFERFGIVVAATGMAVALFSSVLALGITRPVPTNTCVILGLAGGVIIYIMKHSLSVGEVIEVLEVLLIFVYLNMILLYLLPRCFTPGEALLVLGGISFVLNQLIKRSLTLVESQGDPVDFFLLVVVVGMVLMGIFFSTLFVFMDSGTWASSIFFHLMTCVLSLGVVLPWLHRLIRRNPLLWLLQFLFQTDTRIYLLAYWSLLATLACLVVLYQNAKRSSSESKKHQAPTIARKYFHLIVVATYIPGIIFDRPLLYVAATVCLAVFIFLEYVRYFRIKPLGHTLRSFLSLFLDERDSGPLILTHIYLLLGMSLPIWLIPRPCTQKGSLGGARALVPYAGVLAVGVGDTVASIFGSTMGEIRWPGTKKTFEGTMTSIFAQIISVALILIFDSGVDLNYSYAWILGSISTVSLLEAYTTQIDNLLLPLYLLILLMA
B2: Very-long-chain enoyl-CoA reductase (Homo sapiens), Q9NZ01 (parent)
chain: MKHYEVEILDAKTREKLCFLDKVEPHATIAEIKNLFTKTHPQWYPARQSLRLDPKGKSLKDEDVLQKLPVGTTATLYFRDLGAQISWVTVFLTEYAGPLFIYLLFYFRVPFIYGHKYDFTSSRHTVVHLACICHSFHYIKRLLETLFVHRFSHGTMPLRNIFKNCTYYWGFAAWMAYYINHPLYTPPTYGAQQVKLALAIFVICQLGNFSIHMALRDLRPAGSKTRKIPYPTKNPFTWLFLLVSCPNYTYEVGSWIGFAIMTQCLPVALFSLVGFTQMTIWAKGKHRSYLKEFRDYPPLRMPIIPFLL
partner: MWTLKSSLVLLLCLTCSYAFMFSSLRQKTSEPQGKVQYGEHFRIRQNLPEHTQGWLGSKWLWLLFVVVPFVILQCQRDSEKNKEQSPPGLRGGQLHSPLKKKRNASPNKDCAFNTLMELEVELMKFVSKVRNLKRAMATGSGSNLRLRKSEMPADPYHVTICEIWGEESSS
B3: Golgi SNAP receptor complex member 2 (Homo sapiens), O14653 (parent)
chain: MDPLFQQTHKQVHEIQSCMGRLETADKQSVHIVENEIQASIDQIFSRLERLEILSSKEPPNKRQNARLRVDQLKYDVQHLQTALRNFQHRRHAREQQERQREELLSRTFTTNDSDTTIPMDESLQFNSSLQKVHNGMDDLILDGHNILDGLRTQRLTLKGTQKKILDIANMLGLSNTVMRLIEKRAFQDKYFMIGGMLLTCVVMFLVVQYLT
partner: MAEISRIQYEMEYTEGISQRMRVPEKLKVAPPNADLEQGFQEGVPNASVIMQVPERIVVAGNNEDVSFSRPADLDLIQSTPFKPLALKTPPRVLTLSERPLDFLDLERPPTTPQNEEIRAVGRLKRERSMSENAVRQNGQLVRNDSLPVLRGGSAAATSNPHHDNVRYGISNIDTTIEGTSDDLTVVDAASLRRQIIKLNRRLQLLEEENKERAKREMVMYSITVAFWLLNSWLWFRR
B4: Catenin alpha-3 (Homo sapiens), Q9UI47-2 (parent)
chain: MSAETPITLNIDPQDLQVQTFTVEKLLEPLIIQVTTLVNCPQNPSSRKKGRSKRASVLLASVEEATWNLLDKGEKIAQEATVLKDELTASLEEVRKESEALKVSAERFTDDPCFLPKREAVVQAARALLAAVTRLLILADMIDVMCLLQHVSAFQRTFESLKNVANKSDLQKTYQKLGKELENLDYLAFKRQQDLKSPNQRDEIAGARASLKENSPLLHSICSACLEHSDVASLKASKDTVCEEIQNALNVISNASQGIQNMTTPPEPQAATLGSALDELENLIVLNPLTVTEEEIRPSLEKRLEAIISGAALLADSSCTRDLHRERIIAECNAIRQALQDLLSEYMNNAGKKERSNTLNIALDNMCKKTRDLRRQLRKAIIDHVSDSFLDTTVPLLVLIEAAKNGREKEIKEYAAIFHEHTSRLVEVANLACSMSTNEDGIKIVKIAANHLETLCPQIINAALALAARPKSQAVKNTMEMYKRTWENHIHVLTEAVDDITSIDDFLAVSGMFLFF
partner: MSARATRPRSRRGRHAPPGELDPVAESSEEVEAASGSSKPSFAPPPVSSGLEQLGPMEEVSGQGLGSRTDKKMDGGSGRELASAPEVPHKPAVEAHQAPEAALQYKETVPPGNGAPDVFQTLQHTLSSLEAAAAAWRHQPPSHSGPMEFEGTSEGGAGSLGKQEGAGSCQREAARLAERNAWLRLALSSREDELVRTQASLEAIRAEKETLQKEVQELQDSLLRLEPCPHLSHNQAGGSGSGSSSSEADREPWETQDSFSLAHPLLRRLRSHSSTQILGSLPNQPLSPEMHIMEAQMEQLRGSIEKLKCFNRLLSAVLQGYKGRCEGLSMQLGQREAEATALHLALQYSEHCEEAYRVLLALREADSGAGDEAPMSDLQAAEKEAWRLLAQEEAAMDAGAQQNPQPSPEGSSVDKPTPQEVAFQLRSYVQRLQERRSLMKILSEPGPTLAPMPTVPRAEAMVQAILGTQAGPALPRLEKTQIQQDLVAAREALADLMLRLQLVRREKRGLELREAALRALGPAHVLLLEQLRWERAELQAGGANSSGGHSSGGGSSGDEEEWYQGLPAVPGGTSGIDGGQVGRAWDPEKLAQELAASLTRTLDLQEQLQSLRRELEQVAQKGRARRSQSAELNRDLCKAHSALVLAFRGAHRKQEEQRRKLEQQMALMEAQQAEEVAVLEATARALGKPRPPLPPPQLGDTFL
B5: Catenin alpha-3 (Homo sapiens), Q9UI47-2 (parent)
chain: B4 chain
partner: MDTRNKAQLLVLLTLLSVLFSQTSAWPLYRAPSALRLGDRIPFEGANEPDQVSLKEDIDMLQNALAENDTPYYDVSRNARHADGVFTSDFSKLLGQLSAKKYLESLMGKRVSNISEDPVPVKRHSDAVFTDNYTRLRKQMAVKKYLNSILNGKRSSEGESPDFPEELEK
B6: Very-long-chain enoyl-CoA reductase (Homo sapiens), Q9NZ01 (parent)
chain: B2 chain
partner: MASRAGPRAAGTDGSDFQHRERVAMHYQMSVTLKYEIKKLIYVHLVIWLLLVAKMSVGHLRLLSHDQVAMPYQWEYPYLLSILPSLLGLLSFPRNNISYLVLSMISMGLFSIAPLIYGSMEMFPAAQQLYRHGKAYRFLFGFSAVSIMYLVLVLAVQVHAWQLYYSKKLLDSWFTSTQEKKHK
B7: Very-long-chain enoyl-CoA reductase (Homo sapiens), Q9NZ01 (parent)
chain: B2 chain

Variants of: B1
Conditions: with kca10_human KCNA10, Q16322
Chain of kca10_human KCNA10, Q16322 (Q16322 whole entry): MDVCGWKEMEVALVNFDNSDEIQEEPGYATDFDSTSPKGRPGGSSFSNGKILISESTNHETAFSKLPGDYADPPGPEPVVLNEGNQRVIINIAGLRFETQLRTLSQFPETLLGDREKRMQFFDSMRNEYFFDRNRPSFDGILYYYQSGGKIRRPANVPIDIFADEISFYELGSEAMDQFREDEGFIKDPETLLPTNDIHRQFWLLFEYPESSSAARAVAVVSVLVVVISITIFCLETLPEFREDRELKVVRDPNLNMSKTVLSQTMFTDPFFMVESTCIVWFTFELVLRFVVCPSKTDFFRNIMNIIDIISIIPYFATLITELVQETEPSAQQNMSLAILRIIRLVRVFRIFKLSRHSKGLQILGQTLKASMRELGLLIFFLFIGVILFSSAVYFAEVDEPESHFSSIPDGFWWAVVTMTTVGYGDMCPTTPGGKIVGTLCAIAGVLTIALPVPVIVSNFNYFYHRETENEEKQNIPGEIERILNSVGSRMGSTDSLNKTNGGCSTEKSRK
Y441S was tested, and the “effect of a mutation on the interaction” value was “disrupting interaction strength”.

Variants of: B1
Conditions: with kcna6_human KCNA6, P17658
Chain of kcna6_human KCNA6, P17658 (P17658 whole entry): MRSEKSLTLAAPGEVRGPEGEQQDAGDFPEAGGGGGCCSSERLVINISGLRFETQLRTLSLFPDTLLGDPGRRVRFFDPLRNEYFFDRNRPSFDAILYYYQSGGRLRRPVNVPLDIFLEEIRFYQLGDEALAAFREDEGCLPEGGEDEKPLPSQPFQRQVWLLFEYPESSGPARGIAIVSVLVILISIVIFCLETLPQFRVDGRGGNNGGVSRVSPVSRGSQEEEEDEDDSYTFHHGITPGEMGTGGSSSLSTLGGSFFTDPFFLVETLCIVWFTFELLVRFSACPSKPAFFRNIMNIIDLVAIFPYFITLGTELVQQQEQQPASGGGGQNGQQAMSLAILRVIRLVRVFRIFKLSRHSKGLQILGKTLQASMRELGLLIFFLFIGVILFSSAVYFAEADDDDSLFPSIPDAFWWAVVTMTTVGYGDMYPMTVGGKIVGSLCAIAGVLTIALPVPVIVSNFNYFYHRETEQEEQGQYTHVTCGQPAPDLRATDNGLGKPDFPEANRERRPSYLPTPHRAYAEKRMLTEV
With Y441S the “effect of a mutation on the interaction” value was “disrupting interaction strength”.

Variants of: B1
Conditions: with eda_human EDA
With Y441S the “effect of a mutation on the interaction” value was “disrupting interaction strength”.

Variants of: B1
Conditions: with apbp2_human APPBP2, Q92624
Chain of apbp2_human APPBP2, Q92624 (Q92624 whole entry): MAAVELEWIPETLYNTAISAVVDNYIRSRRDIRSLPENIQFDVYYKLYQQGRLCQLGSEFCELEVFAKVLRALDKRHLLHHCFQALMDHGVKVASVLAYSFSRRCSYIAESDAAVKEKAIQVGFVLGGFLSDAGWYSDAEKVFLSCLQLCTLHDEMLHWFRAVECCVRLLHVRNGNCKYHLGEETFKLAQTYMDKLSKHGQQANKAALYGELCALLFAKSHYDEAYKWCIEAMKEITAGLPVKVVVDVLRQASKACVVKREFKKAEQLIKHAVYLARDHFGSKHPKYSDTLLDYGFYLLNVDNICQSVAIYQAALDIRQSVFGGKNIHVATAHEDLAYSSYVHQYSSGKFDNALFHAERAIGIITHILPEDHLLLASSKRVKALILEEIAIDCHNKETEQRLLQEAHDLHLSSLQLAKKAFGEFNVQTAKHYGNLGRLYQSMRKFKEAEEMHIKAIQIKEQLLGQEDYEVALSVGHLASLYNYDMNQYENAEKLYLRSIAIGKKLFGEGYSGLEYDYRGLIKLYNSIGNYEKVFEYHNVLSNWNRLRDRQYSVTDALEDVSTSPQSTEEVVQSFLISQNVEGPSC
In the case of Y441S, the “effect of a mutation on the interaction” value is reported as “disrupting interaction strength”.

Variants of: B1
Conditions: with kcna1_human KCNA1, Q09470
Chain of kcna1_human KCNA1, Q09470 (Q09470 whole entry): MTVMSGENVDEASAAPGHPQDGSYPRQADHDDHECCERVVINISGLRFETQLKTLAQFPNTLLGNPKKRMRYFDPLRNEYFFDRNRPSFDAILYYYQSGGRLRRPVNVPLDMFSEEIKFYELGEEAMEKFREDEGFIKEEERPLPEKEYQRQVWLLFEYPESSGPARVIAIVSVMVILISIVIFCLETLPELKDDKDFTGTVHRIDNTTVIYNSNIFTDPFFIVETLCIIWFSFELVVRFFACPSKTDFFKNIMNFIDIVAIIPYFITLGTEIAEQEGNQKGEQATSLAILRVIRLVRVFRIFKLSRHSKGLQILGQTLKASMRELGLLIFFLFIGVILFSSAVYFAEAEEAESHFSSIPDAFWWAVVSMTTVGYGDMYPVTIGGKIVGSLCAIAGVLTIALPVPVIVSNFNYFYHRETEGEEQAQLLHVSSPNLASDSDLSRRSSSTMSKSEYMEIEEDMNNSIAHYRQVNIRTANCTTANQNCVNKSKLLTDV
Y441S was tested, and the “effect of a mutation on the interaction” value was “disrupting interaction strength”.

Variants of: B1
Conditions: with ylat2_human SLC7A6, Q92536
For Y441S, the “effect of a mutation on the interaction” value was “with no effect”.

Variants of: B1
Conditions: with kca10_human KCNA10, Q16322
Remark: another data set of the same source
Y441S was tested, and the “effect of a mutation on the interaction” value was “with no effect”.

Variants of: B1
Conditions: with kcna1_human KCNA1, Q09470
Remark: another data set of the same source
For Y441S, the “effect of a mutation on the interaction” value was “with no effect”.

Variants of: B1
Conditions: with synpr_human SYNPR
Y441S was tested, and the “effect of a mutation on the interaction” value was “disrupting interaction strength”.

Variants of: B1
Conditions: with tm45b_human TMEM45B
Y441S was tested, and the “effect of a mutation on the interaction” value was “disrupting interaction strength”.

Variants of: B1
Conditions: with cd79a_human CD79A
Target sequence in this assay (P11912 whole entry): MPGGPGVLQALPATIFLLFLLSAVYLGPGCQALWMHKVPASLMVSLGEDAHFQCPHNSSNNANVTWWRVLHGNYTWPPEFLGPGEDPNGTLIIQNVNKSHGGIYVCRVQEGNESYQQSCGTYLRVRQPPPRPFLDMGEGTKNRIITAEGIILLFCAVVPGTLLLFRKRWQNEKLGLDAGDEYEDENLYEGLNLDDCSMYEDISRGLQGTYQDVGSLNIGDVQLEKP
With Y441S the “effect of a mutation on the interaction” value was “with no effect”.

Variants of: B1
Conditions: with cxa8_human GJA8, P48165
Chain of cxa8_human GJA8, P48165 (P48165 whole entry): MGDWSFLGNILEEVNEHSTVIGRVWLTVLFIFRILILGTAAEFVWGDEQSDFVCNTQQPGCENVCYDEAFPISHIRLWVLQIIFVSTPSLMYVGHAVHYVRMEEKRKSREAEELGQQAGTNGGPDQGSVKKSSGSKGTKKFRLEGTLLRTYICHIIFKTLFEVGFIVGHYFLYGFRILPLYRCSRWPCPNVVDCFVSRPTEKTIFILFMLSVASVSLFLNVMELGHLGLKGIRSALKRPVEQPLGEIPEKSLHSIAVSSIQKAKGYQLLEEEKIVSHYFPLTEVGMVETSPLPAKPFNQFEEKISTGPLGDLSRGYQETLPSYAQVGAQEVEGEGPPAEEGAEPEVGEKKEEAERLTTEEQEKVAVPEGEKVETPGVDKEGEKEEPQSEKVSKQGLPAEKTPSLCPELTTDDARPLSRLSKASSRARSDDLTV
With Y441S the “effect of a mutation on the interaction” value was “with no effect”.

Variants of: B2
Conditions: with FAM209A
In the case of P182L, the “effect of a mutation on the interaction” value is reported as “disrupting interaction strength”.

Variants of: B3
Conditions: with MFF
G144W was tested, and the “effect of a mutation on the interaction” value was “disrupting interaction strength”.

Variants of: B4
Conditions: with usbp1_human USHBP1, Q8N6Y0
V94D was tested, and the “effect of a mutation on the interaction” value was “disrupting interaction strength”.

Variants of: B5
Conditions: with VIP
For V94D, the “effect of a mutation on the interaction” value was “disrupting interaction strength”.

Variants of: B6
Conditions: with jagn1_human JAGN1, Q8N5M9
In the case of P182L, the “effect of a mutation on the interaction” value is reported as “with no effect”.

Variants of: B7
Conditions: with ergi3_human ERGIC3, Q9Y282
Chain of ergi3_human ERGIC3, Q9Y282 (Q9Y282 whole entry): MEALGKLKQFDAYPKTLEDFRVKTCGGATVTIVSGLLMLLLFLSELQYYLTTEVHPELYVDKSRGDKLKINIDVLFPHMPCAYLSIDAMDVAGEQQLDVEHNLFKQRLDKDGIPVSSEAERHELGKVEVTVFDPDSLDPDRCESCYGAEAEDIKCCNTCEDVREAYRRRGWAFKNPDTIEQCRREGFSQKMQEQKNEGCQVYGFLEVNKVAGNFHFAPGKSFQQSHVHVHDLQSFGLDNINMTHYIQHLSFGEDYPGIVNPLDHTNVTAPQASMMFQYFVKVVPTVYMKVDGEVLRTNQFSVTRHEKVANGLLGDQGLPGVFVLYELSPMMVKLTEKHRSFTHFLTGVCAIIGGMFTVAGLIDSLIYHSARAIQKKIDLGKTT
P182L was tested, and the “effect of a mutation on the interaction” value was “disrupting interaction strength”.

Variants of: B7
Conditions: with cd79a_human CD79A
Target sequence in this assay (P11912 whole entry): as the sequence (P11912 whole entry) above
In the case of P182L, the “effect of a mutation on the interaction” value is reported as “disrupting interaction strength”.

Variants of: B7
Conditions: with MUC1, P15941-11
Chain of MUC1, P15941-11 (P15941 other isoform, or with tags, fused parts or gaps): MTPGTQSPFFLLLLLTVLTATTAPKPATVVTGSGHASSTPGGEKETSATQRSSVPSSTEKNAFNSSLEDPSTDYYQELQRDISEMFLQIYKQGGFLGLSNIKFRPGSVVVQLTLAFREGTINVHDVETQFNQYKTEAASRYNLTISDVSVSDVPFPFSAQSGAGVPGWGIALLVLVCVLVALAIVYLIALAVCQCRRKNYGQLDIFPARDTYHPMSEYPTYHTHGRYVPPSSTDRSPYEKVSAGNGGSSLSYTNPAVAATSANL
P182L was tested, and the “effect of a mutation on the interaction” value was “disrupting interaction strength”.

Variants of: B7
Conditions: with ar13b_human ARL13B
With P182L the “effect of a mutation on the interaction” value was “disrupting interaction strength”.

Variants of: B7
Conditions: with SLC7A14, Q8TBB6
Chain of SLC7A14, Q8TBB6 (Q8TBB6 whole entry): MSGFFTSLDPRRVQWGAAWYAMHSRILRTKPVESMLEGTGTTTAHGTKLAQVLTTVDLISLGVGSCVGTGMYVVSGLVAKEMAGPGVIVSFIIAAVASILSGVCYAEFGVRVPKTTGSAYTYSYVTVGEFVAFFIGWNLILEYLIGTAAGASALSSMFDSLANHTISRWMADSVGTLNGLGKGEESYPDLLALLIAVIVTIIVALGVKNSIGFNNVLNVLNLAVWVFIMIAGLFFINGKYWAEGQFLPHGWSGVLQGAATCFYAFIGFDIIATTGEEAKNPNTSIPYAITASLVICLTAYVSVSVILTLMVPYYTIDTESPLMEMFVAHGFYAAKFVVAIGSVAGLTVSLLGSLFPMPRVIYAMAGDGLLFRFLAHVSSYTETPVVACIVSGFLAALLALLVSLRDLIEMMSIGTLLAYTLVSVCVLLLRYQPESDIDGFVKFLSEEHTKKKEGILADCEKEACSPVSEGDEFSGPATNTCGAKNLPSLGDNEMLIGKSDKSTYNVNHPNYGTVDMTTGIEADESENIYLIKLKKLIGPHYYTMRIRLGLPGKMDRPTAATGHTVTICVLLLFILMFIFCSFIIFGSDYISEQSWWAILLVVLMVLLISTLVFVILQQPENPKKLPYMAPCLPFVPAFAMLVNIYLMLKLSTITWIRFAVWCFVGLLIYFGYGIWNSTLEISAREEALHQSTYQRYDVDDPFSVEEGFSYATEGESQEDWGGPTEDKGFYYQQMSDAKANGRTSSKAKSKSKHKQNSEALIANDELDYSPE
P182L was tested, and the “effect of a mutation on the interaction” value was “disrupting interaction strength”.

Variants of: B7
Conditions: with sting_human STING1, Q86WV6
Chain of sting_human STING1, Q86WV6 (Q86WV6 whole entry): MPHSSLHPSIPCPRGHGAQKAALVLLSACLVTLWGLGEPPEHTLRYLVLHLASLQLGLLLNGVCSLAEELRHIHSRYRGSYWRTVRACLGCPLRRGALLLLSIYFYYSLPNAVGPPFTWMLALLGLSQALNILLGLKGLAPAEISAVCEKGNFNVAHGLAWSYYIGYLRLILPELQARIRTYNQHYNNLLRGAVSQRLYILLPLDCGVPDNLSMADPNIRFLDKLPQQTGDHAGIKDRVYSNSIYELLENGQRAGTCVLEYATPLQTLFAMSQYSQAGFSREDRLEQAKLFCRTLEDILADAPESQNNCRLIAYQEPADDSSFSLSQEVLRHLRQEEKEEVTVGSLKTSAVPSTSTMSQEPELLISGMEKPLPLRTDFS
With P182L the “effect of a mutation on the interaction” value was “with no effect”.
